Source: patent publication US20240026407A1, “MODIFICATION OF SAPONINS” (GLAXOSMITHKLINE BIOLOGICALS SA, priority 2020, published 2024)

Key:
Assay type in all cases: biochemical, Quillaja saponaria
[1] = Experiment 5-3: screening of additional glucosidases for deglycosylation with QS-18 in treated bark extract (80%) at pH 6 and 35 deg C; conditions: TBE 80% (QS-21 approx. 4 g/L), pH 6, 35 deg C; UV HPLC
Experimental: Experiment 5-1 was repeated, replacing CBE with Treated Bark Extract (TBE) at pH 6. TBE was prepared from CBE by PVPP treatment and concentration, to provide TBE with a QS-21 concentration of approximately 4 g/L. TBE was adjusted to pH 6 by dropwise addition of 2M NaOH with stirring.

[2] = Experiment 5-1: screening of additional glucosidases for deglycosylation with purified QS-18 (0.04 mg/ml) at pH 7.5 and 30 deg C; conditions: pH 7.5, 30 degrees C, 18 hours, LCMS/MS
Experimental: The 94 additional genes, together with positive control (DNA encoding SEQ ID No. 262) and negative control, were transformed, expressed, lysed and reacted in the same manner as described above for Experiment 4-1, except the reaction was incubated at 30 degrees C. for 18 hours.
Samples were analysed by LCMS/MS according to the procedure in Experiment 4-1.

[3] = Experiment 5-2: screening of additional glucosidases for deglycosylation with QS-18 in crude bark extract (80%) at pH 6 and 35 deg C; conditions: CBE 80%, pH 6, 35 deg C, 18 hours; UV HPLC
Experimental: A plate was lysed at pH 6 as described in Experiment 4-2. 40 uL of clarified lysate was transferred to a reaction plate
The pH of CBE was adjusted to pH 6 by dropwise addition of 2M NaOH with stirring. 160 uL of pH 6 CBE was added to each well of the reaction plate. The reaction plate was sealed and incubated at 35 deg C. with shaking for 18 hours.
The reaction plate was quenched by adding 200 uL of MeCN (2% acetic acid (AcOH), 1 mg/mL hexanophenone) to each well of the plates. The quenched reaction plate was re-sealed and incubated at 20 deg C. with shaking for 10 min. The reaction plate was then centrifuged (10 min, 4 degC).
200 uL was transferred from each well of the quenched plate to the corresponding wells of a fresh 96 well plate and sealed. The plate was analysed by UV HPLC with the method of Experiment 4-4.

B1: 888 (protein)
chain: MTESVAHLRPLLDALTLEQKAALVQGADFWTTVPLPEIGLRAMTLSDGPSGVRGPRWDEREPSLNLPSGSALAASWDVDLAYRYGAAAASEARRKGVDVVLGPTINLHRSPLGGRHFECFSEDPELTAELAAAYVRGMQDNGVAATPKHYVANDSETDRFTVDVDVDDRALRELYLAPFERAVEAGAWSVMSAYNAVDGVTMTENDLLETPLNSEWGFDGVVVSDWTAVRSLDAVAAAQDLAMPGPAPAWADLLAAVRDGRVQEADLDRKVLRLLLLAERVGALEGSTALEPAPVDAEAFAREAGIEGTVLLRNTGALPLDVAAIRSIAVIGHNARDARTQGGGSATVLPERTVSPLDGLREALPEADLRYEIGAVVQEGVAEIPVAQLRNPETGEPGLRVRFLDEDGAELFSEDRRSTALVWFGGDAPVAASSRVVFETVFTPAETGEIQLGFAGANPGRLYVDDRLVLDDTPVIEGTDLGAAFLNPPSLTAGVSVEQDTPIRVRVEFTLARGGALAGALSATVGIAPEATDPEALIARAVEAAAAADVAVVVVGTNSKVESEGYDRIDLDLPGRQDDLVRAVAATGTPVVVVVNAGSPVVLPWADEVSAIVQGYFGGQEFGHALADVLTGAAEPGGRLPTTWPATLADVPVQDVTPQDGVLTYGEGIHVGYRAWLKDAATPAFPFGHGLGYTTWSWGAAHRHGDAVDVTVRNTGDRAGKQVVQVYAERGDSSVDRPVRWLVGFATVHAEPGETVTATVPVPGRRLAHWADGWVVEPGAYTLRAGASVDDLPLALEWTVAE
modifications: uncultured Microbacterium sp.
[1]
  Experiment 5-3 % conv: <0.5%
[2]
  Experiment 5-1 % conv: 78.0%
[3]
  Experiment 5-2 % conv: <0.5%

B2: 891 (protein, listed as Pseudarthrobacter chlorophenolicus)
chain: MNPTLPAAATVPAVGSPDAEARIRDLAESLTLEQQVQLLTGADVWSTHALPAIGLSRVVMSDGPAGVRGEDFDERHDSVSLPSSSALSATWSVDLARRYGQVLGQEARRKGVHAVLGPTINLHRSPLGGRHFECMSEDPRLTATIAAGYVAGVQSMGVGATPKHYLANEAETDRFTSDSVVDERPLRELYLAAFEDAVTEARAWLVMSSYNSINGTTASENDLLETPLSTEWGFDGVVVSDWTGVRSVDAANAHQDLEMPGPVGHWGPKLLAAVGDGRVSRTAILDKVVRILRLAARVGSLDGVSPAVTELPAPLNAPAVAREVAVRGAVLVRNKDGLLPLDPAALGSVAVSGHNAEEARTQGGGSATVMPKQNISPLEGLREALPANVAISYHRGAKVAEGLQAFPRTSLHNPVSNVPGLRVTFLAADGTELSGEDRLASHLIWFGIGIPEGAAAIRMETDWTAPSAGTHHLGLGTVGRIRLSLRGQEVFNGDIEDETEVLGAALFDPPKTVHAIETEAGERVRIEALFELPADQAIPFTAILLGEETVVADPQAEIDAAVEAARTADVAVVVVGTSAAIESEGFDRKDLDLPGHQNRLVEAVAAANPRTVVVVNSGSPVLMPWLDKVGAVLLGWFGGQEFGRAIADILLGAEEPGGRLPTTWPAALEDVPVLDTTPMDGKVVYSEGIHVGYRAWLKQQAAGGAAPALPFGYGLGYTTFELCTPHASQAVPAGKDVVVHVPVRNTGTRAGREVVQVYLERPESAVERPVRWLAGYAGTHLAAGGTSSVEVRIPGRAFAHYDGGWQVEPGTFRILVGRHSADGFQALDIDVR
[1]
  Experiment 5-3 % conv: <0.5%
[2]
  Experiment 5-1 % conv: 74.7%
[3]
  Experiment 5-2 % conv: <0.5%

B3: 827 (protein, listed as Bionectria ochroleuca)
chain: MAPTDVNAVLSKLTLEEKISILAGADFWQTVPIPEKGVPALKTSDGPNGARGETFSGGVTAACFPAACSVASTFDVDIARRIGVALGEETLTKGARCLLGPTICGHRHPLGGRNFESFSEDPFLAGTLASQSVQGIQSTGVAATMKHYAVNEQETERLSVDEIVDERTMREIYLRPFERVVKEAKPAAVMTGYNQVNGSHCDSHEFLLKQVLRGEWGWDGLVMSDWGGVNSVAESLNAGLDLEMPGPTRWRKVDEVVAAVKAGKVSEETINDRAIHVLRFLERQNCFKDPTIPPEQAVNKPEHQALIREAGSKGIVLLKNNDNVLPLTKEKARGKKIALLGLAKESLAHGGGSASLNAHYKITPWDALQEAYKGENVEFTYAKGAHTLRQLPVITKNVVDVDGKPGFTWRSYHVGESQPYNTVGGHAKSEISLLDGLNMVNTSIELEGTFTASESATYYFTLSGLGPSSVAINGTVVFEQEDNCSDPMGFLLGGVASPLVKYEFESGKQYKILLKSTPPAPVEGVDLGILEGKVGVRLGNMSASEHDKDILTEAIDLAKAADYAIVFTGHDPSWETEGQDQHSFNLPKDGSQDRLVSGVAAVNQNTIVVNSTGVAVAMPWLDEIKSLVHTWFPGQEAGNSIADVLTGERNPEGHLTCTFPKRLEDCPAYGNFPGEYNGRQLTVKYAEGVFVGYRHFDRLPAEKVNFPFGFGLSYTTFGFSDFDVKPTAAGDEWTASVKVTNTGSVKGAIAVQLYVGNSKTSPENPVKSLVSFKKVTLAAGGSAVVELPAQGRDIAFWSQQEHKWVLEAGEYNFSVGKSAGDLVATATVQVGGKTYAP
[1]
  Experiment 5-3 % conv: <0.5%
[2]
  Experiment 5-1 % conv: 69.2%
[3]
  Experiment 5-2 % conv: <0.5%

B4: 804 (protein, listed as Microbacterium trichothecenolyticum)
chain: MTETATSTHTDSVQHLVPLLDRLTLEQKAALVQGADFWTTVPLPEIGLRAMTLSDGPAGVRGPRWDEREPSLNLPSGSALAASWDVDLAYRYGAAAASEARRKGVDVVLGPTINLHRSPLGGRHFECFSEDPELTAELAAAYVRGLQDNDVAACPKHYVANDSETDRFTVDVRVDERALRENYLAPFERAVDAGAWTIMSAYNAVDGVTMTENDLLETPLNSEWGFDGVVISDWTAVRSLDSVPAAQDLAMPGPAPAWADLVAAIRDGRLNEADLDRKVLRVLLLAQRVGALGEREPREPAPLDGPAFAREAAIEGTVLLRNEGVLPLDASSLGRVAVIGQNAREARTQGGGSATVIPESVVSPLDAIRAAVPGADVGFEIGAVVQEGVAEIPLAHLTNPATGEAGIRVAFFDADGTELFAENRRSTALVWFGGDAPIAASATVVFETLYTPAETGDIELGFAGANPGKLYVDGQLVLDDSPVIEGTDLGAAFLNPPSITATVAVEAGRETAVRVEFSRESHGALSGALSATLGIAPERTDADELIARAVAEAAASDLAIVVVGTNSKVESEGYDRTSLDLPGRQDDLVRAVAATGTPTVVVVNAGSPVVLPWAEDVAAVVQGYFGGQEFGHAIADVLTGAAEPGGRLPTTWPAALADVPVTEVVPTDGRLEYREGLHIGYRAWLKADAVPAFAFGHGLGYTTWSWGAAQRTGDTVEVTLANTGHRRGKQVVQVYAERPESAVERPERWLVGFATVHAAPGETVTATIPVPARRLAHWAGEWTVESGAYTLRAGASVADLPLSLEWRIAS
[1]
  Experiment 5-3 % conv: <0.5%
[2]
  Experiment 5-1 % conv: 83.2%
[3]
  Experiment 5-2 % conv: <0.5%

B5: 881 (protein, listed as Treponema azotonutricium)
chain: MTSKEIIPQMTLEEKAALCSGRDFWSLKGIERFGLEAIMVTDGPHGLRKQGGDGDHLGLNQSVPATCFPAACATACSFDRSLLEEIGAAMGEECRKEKVAVLLGPAANIKRSPLCGRNFEYISEDPFLTGEIAAALIKGVQKLGVGTSLKHYAVNNQEKRRMTINAVVDERAFREIYLAGFEKAVREAKPWTLMCSYNKINGTYASENKKLLTDILRDEWAYQGLVMTDWGASNNRLEGIKAGLDLQMPGPDADNDKRIIEAVKSGALSIEDLDKVVARVVDLIIKAGEGDSIGFACDMEAHHLLARRAAAESAVLLKNDENILPLVPGKTLAVIGAFAISPRYQGAGSSKINPSHLDKAFDAIMRTGIKAEYAPGYSLEAGSGVNEKLIAEAAKLAGEKDSAVVFAGLPDEYESEGFDRASMDMSESHNKLIEAVAKANPNTVVVLQLGSPVALPWADKVKGILLLYLSGQAGGGAAADLLTGNACPGGKLAETWPLALEDNPSYGNFPGSTKTVEYRESIFAGYRWYDALEKEVRYPFGFGLSYTSFEYSDLKLGTSAEAKDNFKKGDALKVSFTVKNTGSREGSETAQLYIAPDASVLFRAKKELKGFEKLHLKPGESKTVTLILDERSFAYYNVQAKDWSLEGGLYRILIGASSRDIRLEGKLELTGDKRETAFAFLKGGRPVFDDASFKAIYGAELPPKERLPGEPFTVNTSVEEIKDTPIGKALFGMAVQGLEQAFGKEKSDLKVMMESMLMDMPLRGLGMMSGGRLTPPVIEALVEALNGKPNPIASGLLGMK
[1]
  Experiment 5-3 % conv: <0.5%
[2]
  Experiment 5-1 % conv: 77.5%
[3]
  Experiment 5-2 % conv: <0.5%

B6: 816 (protein)
chain: MTASTDHLRPLLEKLSLEQKAALVQGADFWTTVPLPEIGLRALTLSDGPAGVRGPRWDEREPSLNLPSGSALAASWDVDLAYRYGAAAASEARRKGVDVVLGPTINLHRSPLGGRHFECLSEDPELTAELGAAYVRGMQENGVAATPKHYVANDSETDRFTVDVEVDERTLREVYLAPFERAVEAGAWSVMSAYNSVDGVTMTENDLLENPLNSEWGFDGVVVSDWTAVRSLDAVAAAQDLAMPGPAPAWADLVDAVHDGRVDEADIDRKVLRILLLAERVGALEGADAVAPAPLDGPAFAKEAAVEGTVLLQNSGVLPLDLAGLTKVAIIGHNAKDARTQGGGSATVLPEKVVSPLDAIRAALPAAEVSYEIGAVVQEGVAEIPLASIENPVTGGPGVRVSFHGADGTELFAEDRRATALVWFGGDAPIGASRTIVLETRYTPAESGEIQLGFAGANPGRIFVDGELVLDDVPVIEGTDLGAAFLNPPSITSAVTVEAGRAVDLRAEFTRESRGALDGALSVTLGIAPERTDPDELIARAAAAASAAEVAVVVVGTNSKVESEGYDRVDLDLPGRQDDLVRAVAATGTPTVVVVNAGSPVVLPWAGEVAAIVQGYFGGQEFGHAIAEVLTGAAEPGGRLPTTWPAALADVPVADVTPVDGRLVYAEGLHIGYRAWLKDDVQPAFPFGHGLGYTTWSWGTAQRHDDTVEVTLANTGEREGKQVVQVYAERADSTVDRPARWLVGFAVVHAEPGRTVTAVVPVPARRLAHWAGEWVVEPGAYTLRVGSSVADLPLSVEWVQA
modifications: Microbacterium hydrocarbonoxydans
[1]
  Experiment 5-3 % conv: <0.5%
[2]
  Experiment 5-1 % conv: 73.5%
[3]
  Experiment 5-2 % conv: <0.5%
